Laboratory results published in patent US8852550B2, “Chelator conjugates” (GE Healthcare Limited, priority 2001, dated 2014).
Ends that are not written are not given here. Compound 1 = not defined here

Assays:
[1] = 99mTc labelling of Compound 5, radiochemical purity by ITLC and HPLC (Example 11); assay type: physicochemical
Description: A freeze-dried formulation containing: • 50 μg PABA (para-aminobenzoic acid), • 30 μg SnCl2, • 90 μg MDP (methylenediphosphonic acid), • 1.32 mg NaHCO3, • 98 μg Na2CO3, • 4 mg NaOAc, was sealed under nitrogen gas in a 10 ml glass vial. The vial was removed from freezer storage and left at room temperature for 15 minutes, and was then reconstituted with 100 μl of a solution containing Compound 5, ie. the peptide-chelator conjugate Ac-Asn-Gln-Glu-Gln-Val-Ser-Pro-(I-Tyr)-Thr-Leu-Leu-Lys-Gly-[Compound 1] (2 mg in 2 ml water) and Xml of ^99mTc-pertechnetate in saline, with a radioactive concentration of 0.5 GBq/ml, from an Amertec II ^99mTc generator at room temperature. The activity was measured using an ion chamber. The RCP was measured using ITLC and HPLC. The results are shown in Table 3 for different values of X: […]

[2] = 99mTc labelling of Compound 9, radiochemical purity by ITLC and HPLC (Example 13); assay type: physicochemical
Description: Compound 9 was prepared in an analogous manner to Examples 7 and 8, and labelled with ^99mTc in solution (Preparation 1) or via a freeze-dried kit according to Example 10 (Preparation 2).
For Preparation 1, 100 μg of Compound 9 was dissolved in 1 ml of pH 8.5 borate buffer. This was transferred to a P6 vial and sealed. 1 ml ^99mTc-pertechnetate in saline (1.0 GBq/ml, from an Amertec II generator) was added at room temperature, together with 0.1 ml SnCl2 solution (10 mg SnCl2 in 100 ml N2 purged saline). The activity was measured using an ion chamber. The RCP was measured using ITLC and HPLC.

[3] = Prep 1, X 2 ml, 1.04 GBq, 255 min post-reconstitution
[4] = Prep 2, X 2 ml, 1 GBq, 15 min post-reconstitution
[5] = Prep 3, X 5 ml, 2.47 GBq, 15 min post-reconstitution

Substance: Ac-Asn-Gln-Glu-Gln-Val-Ser-Pro-(I-Tyr)-Thr-Leu-Leu-Lys-Gly-[Compound 1] (chain 1 Ac-NQEQVSP; chain 2 TLLKG-{Compound 1}; not fully specified (C-terminus); reading uncertain; also: chains 1 and 2 joined in one chain through I-Tyr) [Compound 5, peptide-chelator conjugate of Compound 1 with thrombus-targeting peptide]
- RCP % (ITLC) ([1]; Prep 1, X 2 ml, 1.04 GBq, 15 min post-reconstitution): 99.4%
- RCP % (HPLC) [1, 3]: 86.8%
- RCP % (ITLC) [1, 3]: 99.2%
- RCP % (HPLC) [1, 4]: 83.0%
- RCP % (ITLC) [1, 4]: 99.3%
- RCP % (HPLC) ([1]; Prep 2, X 2 ml, 1 GBq, 60 min post-reconstitution): 85.2%
- RCP % (HPLC) [1, 5]: 86.5%
- RCP % (ITLC) [1, 5]: 99.3%
- RCP % (HPLC) ([1]; Prep 3, X 5 ml, 2.47 GBq, 150 min post-reconstitution): 87.6%
- RCP % (ITLC) ([1]; Prep 4, X 2 ml, 1.02 GBq, 15 min post-reconstitution): 99.1%
- RCP % (HPLC) ([1]; Prep 4, X 2 ml, 1.02 GBq, 140 min post-reconstitution): 86.6%

Substance: [Compound 1]-Cys-Cys-Glu-Leu-Cys-Cys-Asn-Pro-Ala-Cys-Ala-Cys-Tyr-OH ({Compound 1}-CCELCCNPACACY-OH; reading uncertain; also: cyclic, bridges not given here, printed as [Compound 1]-Cys-Cys-Glu-Leu-Cys-Cys-Asn-Pro-Ala-Cys-Ala-Cys-Tyr-OH) [Compound 9]
- RCP by ITLC ([2]; Preparation 1: in solution, pH 8.5 borate buffer, room temperature): 96%
- RCP by HPLC ([2]; Preparation 2: freeze-dried kit according to Example 10): 82%
